Results reported in the supplement of paper PMC6757056.
± gives the standard deviation of the averaged measurements.

B1: library; a variant is named by its letters at N, in order (parent)
chain: GCUGUCACCGGAAUACCAGCAUCGUCUUGAUGCCCUUGGAAGUCCGGUCUGAUGAGUCCNNNNNGGACGAAACAGC

Columns and labels:
[1] = variants of: B1; test: FACS-Seq fitted mean relative fluorescence mCherry/BFP without ligand (log10 relative fluorescence); higher = higher reporter protein expression; details: HEK293T, ligand present: no
In short: (§1)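 Fluorescence is reported as a normalized fitted mean of sorted-bin read counts. Lentivirally transduced HEK293T libraries (mCherry ribozyme-switch reporter, EF1α-BFP marker) were enriched, treated with or without ligand for 48 h, and sorted into 6 mCherry/BFP bins for MiSeq sequencing of PCR-amplified genomic DNA. The normal fit was on log10(mCherry/BFP), scaled to five spiked-in control ribozymes.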

[2] = variants of: B1; test: normalized RNA/DNA level with ligand (relative to sTRSVctl = 100) (log10 (% of sTRSVctl)); higher = less ribozyme self-cleavage, higher mRNA level; details: ligand concentration (+) RNA-Seq: 5 mM, HEK293T, reporter: mCherry (pCS4076), ligand present: yes
In short: (§2)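 For each 6-well well, 4 µg of library plasmid encoding mCherry-linked ribozyme switches, or eGFP-linked ones in some ligand experiments, was transfected into HEK293T. Any ligand was added 1 h before transfection, and RNA was extracted with EDTA 72 h after it, then reverse-transcribed, amplified, barcoded and sequenced. RNA level was obtained by dividing RNA reads by DNA reads, normalizing to a spiked-in non-cleaving sequence or to the top sequences, then scaling and log-transforming. The top set was 25 sequences, scaling was ×100 with log10, and ≥100 DNA reads were required.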

[3] = variants of: B1; test: normalized RNA/DNA level without ligand (relative to sTRSVctl = 100) (log10 (% of sTRSVctl)); higher = less ribozyme self-cleavage, higher mRNA level; details: HEK293T, reporter: mCherry (pCS4076), ligand present: no
In short: as §2

[4] = variants of: B1; test: FACS-Seq fitted mean relative fluorescence mCherry/BFP with ligand (log10 relative fluorescence); ligand concentration (+) FACS-Seq: 1 mM; higher = higher reporter protein expression; details: HEK293T, ligand present: yes
In short: as §1

Row | Variant | FACS-Seq fitted mean (log10) [1] | normalized RNA/DNA level with ligand (log10) [2] | normalized RNA/DNA level without ligand (log10) [3] | FACS-Seq fitted mean (log10) [4]
1 | CGGCC | 0.745 ± 0.024 | 2.06 ± 0.1 | 2.03 ± 0.1 | 0.6421 ± 0.002
2 | CAAUC | 0.844 ± 0.034 | 1.94 ± 0.053 | 1.83 ± 0.13 | 0.825 ± 0.014
3 | UCCAU | 1.01 ± 0.016 | 2.012 ± 0.019 | 1.96 ± 0.054 | 1.05 ± 0.11
4 | AAUAA | -0.00162 ± 0.092 | 1.88 ± 0.051 | 1.33 ± 0.021 | 0.509 ± 0.039
5 | GAGCG | 0.793 ± 0.054 | 1.94 ± 0.066 | 1.79 ± 0.033 | 0.81 ± 0.05
6 | CGUGA | -0.0723 ± 0.18 | 1.97 ± 0.025 | 1.58 ± 0.054 | 0.221 ± 0.11
7 | AUCCA | 0.993 ± 0.031 | 2 ± 0.13 | 1.95 ± 0.1 | 0.788 ± 0.066
8 | CGGGA | 0.508 ± 0.043 | 2.01 ± 0.033 | 1.74 ± 0.071 | 0.753 ± 0.077
9 | AUUGC | 1.19 ± 0.033 | 2.0706 ± 0.0016 | 2.01 ± 0.087 | 1.02 ± 0.1
10 | UAGUC | 0.521 ± 0.015 | 1.925 ± 0.01 | 1.88 ± 0.067 | 0.4472 ± 0.0043
11 | CCUCU | 0.198 ± 0.07 | 1.93 ± 0.039 | 1.87 ± 0.036 | 0.0585 ± 0.1
12 | UACCU | -0.0361 ± 0.0029 | 1.988 ± 0.00013 | 1.99 ± 0.099 | 0.0166 ± 0.074
13 | UAUAG | 0.9651 ± 0.0015 | 1.95 ± 0.053 | 1.855 ± 0.015 | 0.896 ± 0.067
14 | UUUAC | 0.968 ± 0.059 | 2.06 ± 0.073 | 1.98 ± 0.066 | 0.808 ± 0.084
15 | UUUAA | 0.514 ± 0.017 | 2.05 ± 0.08 | 1.69 ± 0.019 | 0.695 ± 0.019
16 | CACGA | 0.805 ± 0.037 | 1.998 ± 0.0074 | 1.76 ± 0.036 | 0.917 ± 0.012
17 | UCAUG | 0.358 ± 0.073 | 1.9 ± 0.12 | 1.89 ± 0.091 | 0.349 ± 0.033
18 | GUCCU | 1.16 ± 0.13 | 2.03 ± 0.052 | 2 ± 0.1 | 1.13 ± 0.12

Row | Variant | FACS-Seq fitted mean (log10) [1] | normalized RNA/DNA level with ligand (log10) [2] | normalized RNA/DNA level without ligand (log10) [3] | FACS-Seq fitted mean (log10) [4]
19 | AAUCC | 0.844 ± 0.012 | 2.04 ± 0.052 | 1.95 ± 0.07 | 0.808 ± 0.05
20 | AUUAA | 0.68 ± 0.04 | 1.94 ± 0.11 | 1.74 ± 0.099 | 0.832 ± 0.041
21 | AUAGG | 0.526 ± 0.084 | 1.994 ± 0.0048 | 1.84 ± 0.068 | 0.441 ± 0.063
22 | AUAGA | 0.592 ± 0.06 | 1.958 ± 0.018 | 1.57 ± 0.15 | 0.972 ± 0.13
23 | ACAAU | 0.476 ± 0.2 | 1.99 ± 0.077 | 1.75 ± 0.096 | 0.44 ± 0.037
24 | UAGCU | 1.23 ± 0.19 | 2.01 ± 0.048 | 1.93 ± 0.068 | 1.14 ± 0.05
25 | AUAUC | 0.978 ± 0.081 | 1.912 ± 0.018 | 1.94 ± 0.048 | 1.06 ± 0.012
26 | CUGAA | 0.3855 ± 0.0027 | 2.006 ± 0.0026 | 1.317 ± 0.0043 | 0.763 ± 0.15
27 | GACAU | 0.478 ± 0.063 | 2.04 ± 0.032 | 1.859 ± 0.0069 | 0.576 ± 0.07
28 | ACCAC | 1.02 ± 0.038 | 2 ± 0.055 | 2.006 ± 0.014 | 0.984 ± 0.066
29 | AGCAG | 0.801 ± 0.041 | 2.03 ± 0.12 | 1.81 ± 0.027 | 0.944 ± 0.048
30 | CCAAA | 0.24 ± 0.12 | 1.97 ± 0.051 | 1.48 ± 0.06 | 0.619 ± 0.23
31 | UCUUU | 0.989 ± 0.015 | 2.019 ± 0.0067 | 1.86 ± 0.14 | 1.04 ± 0.1
32 | CCAGU | 0.937 ± 0.067 | 1.974 ± 0.0042 | 1.9 ± 0.12 | 0.929 ± 0.058
33 | GAUGU | 0.101 ± 0.097 | 1.88 ± 0.052 | 1.71 ± 0.099 | 0.375 ± 0.068
34 | AACGU | 0.773 ± 0.075 | 1.965 ± 0.017 | 1.793 ± 0.011 | 0.854 ± 0.2
35 | AAACC | 0.153 ± 0.14 | 1.96 ± 0.097 | 1.91 ± 0.14 | 0.18 ± 0.0037
36 | AAACG | 0.558 ± 0.061 | 2 ± 0.03 | 1.84 ± 0.12 | 0.652 ± 0.062
